Measurements taken from PMC9554411.

Biological target: MERS-CoV spike glycoprotein ectodomain (EMC strain, spike residues 1-1290), trimer (MERS-CoV (EMC strain)) (UniProt K0BRG7)
Test: cryo-EM structure

## MERS-CoV spike glycoprotein ectodomain (EMC strain, spike residues 1-1290), trimer (from UniProt K0BRG7 18-1290) (domain or fragment)
  stoichiometry N: 3
